5 molecules from publication PMC6511849 (Nucleic Acids Research, 2019) can be followed below.

First the molecules themselves.
B1: D3P peptide with Glu for Tyr at position 1 (ERERERER backbone with phosphoserine at position 5) (peptide)
peptide: {FITC-Ahx}-ERER[pS]RER
B2: transportin 3 (TNPO3) (natural protein)
chain: MEGAKPTLQLVYQAVQALYHDPDPSGKERASFWLGELQRSVHAWEISDQLLQIRQDVESCYFAAQTMKMKIQTSFYELPTDSHASLRDSLLTHIQNLKDLSPVIVTQLALAIADLALQMPSWKGCVQTLVEKYSNDVTSLPFLLEILTVLPEEVHSRSLRIGANRRTEIIEDLAFYSSTVVSLLMTCVEKAGTDEKMLMKVFRCLGSWFNLGVLDSNFMANNKLLALLFEVLQQDKTSSNLHEAASDCVCSALYAIENVETNLPLAMQLFQGVLTLETAYHMAVAREDLDKVLNYCRIFTELCETFLEKIVCTPGQGLGDLRTLELLLICAGHPQYEVVEISFNFWYRLGEHLYKTNDEVIHGIFKAYIQRLLHALARHCQLEPDHEGVPEETDDFGEFRMRVSDLVKDLIFLIGSMECFAQLYSTLKEGNPPWEVTEAVLFIMAAIAKSVDPENNPTLVEVLEGVVRLPETVHTAVRYTSIELVGEMSEVVDRNPQFLDPVLGYLMKGLCEKPLASAAAKAIHNICSVCRDHMAQHFNGLLEIARSLDSFLLSPEAAVGLLKGTALVLARLPLDKITECLSELCSVQVMALKKLLSQEPSNGISSDPTVFLDRLAVIFRHTNPIVENGQTHPCQKVIQEIWPVLSETLNKHRADNRIVERCCRCLRFAVRCVGKGSAALLQPLVTQMVNVYHVHQHSCFLYLGSILVDEYGMEEGCRQGLLDMLQALCIPTFQLLEQQNGLQNHPDTVDDLFRLATRFIQRSPVTLLRSQVVIPILQWAIASTTLDHRDANCSVMRFLRDLIHTGVANDHEEDFELRKELIGQVMNQLGQQLVSQLLHTCCFCLPPYTLPDVAEVLWEIMQVDRPTFCRWLENSLKGLPKETTVGAVTVTHKQLTDFHKQVTSAEECKQVCWALRDFTRLFR

For one assay, the target named is TNPO3 (UniProt Q9Y5L0). The assay can be described thus: fluorescence polarisation titration. The conditions noted are these: reference: unmodified D23 peptide. Background: In fluorescence polarisation assays a small probe gives low polarisation when free and higher when bound to something large.
In the assay “transportin 3 (TNPO3)” the target is B2. The assay can be described thus: fluorescence polarisation.
The target of assay [1] is GST-RSLD-WT, non-phosphorylated (expressed without CLK1) (human). The assay can be described thus: pull-down.
Sequence of GST-RSLD-WT, non-phosphorylated (expressed without CLK1) (human) (Q16630 whole entry): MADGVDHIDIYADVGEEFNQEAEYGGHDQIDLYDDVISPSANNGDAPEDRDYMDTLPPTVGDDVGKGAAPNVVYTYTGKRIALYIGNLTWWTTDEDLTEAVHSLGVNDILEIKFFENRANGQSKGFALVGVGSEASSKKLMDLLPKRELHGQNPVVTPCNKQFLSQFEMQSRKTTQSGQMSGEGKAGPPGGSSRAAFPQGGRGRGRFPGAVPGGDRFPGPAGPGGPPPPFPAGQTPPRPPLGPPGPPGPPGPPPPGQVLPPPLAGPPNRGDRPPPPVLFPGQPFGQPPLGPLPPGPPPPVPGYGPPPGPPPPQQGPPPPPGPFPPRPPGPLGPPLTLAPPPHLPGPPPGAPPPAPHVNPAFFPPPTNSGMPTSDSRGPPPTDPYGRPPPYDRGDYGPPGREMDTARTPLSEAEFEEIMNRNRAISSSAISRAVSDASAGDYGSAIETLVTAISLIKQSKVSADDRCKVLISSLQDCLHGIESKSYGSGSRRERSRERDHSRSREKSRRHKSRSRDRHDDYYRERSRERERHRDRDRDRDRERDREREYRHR
Assay [2] has as its target ER/S peptide (D3 peptide with Glu for Tyr at position 1) (human) (UniProt Q16630). The assay can be described thus: fluorescence polarisation.
Assay [3] has as its target SRSF1 RS peptide (unmodified 8-mer). The assay is described as follows: fluorescence polarisation.
Assay [4] addresses CPSF6 D1 peptide (unmodified 8-mer) (human). The assay can be described thus: fluorescence polarisation.
In assay [5] the target is SRSF1 RSP peptide (phosphorylated 8-mer). The assay is described as follows: fluorescence polarisation.
The target in assay [6] is CPSF6 D2 peptide (unmodified 8-mer) (human). The assay can be described thus: fluorescence polarisation.
In the next assay the target is T1, CPSF6 D2P-D3 peptide (human, UniProt Q16630 509-528).
T1 peptide: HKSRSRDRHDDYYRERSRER
The assay is described as follows: fluorescence polarisation.

In assay [7] the target is T2, ERERERER backbone with Tyr at position 1.
T2 peptide: {FITC-Ahx}-YRERERER
The assay can be described thus: fluorescence polarisation.

Assay [8] has as its target B1. The assay is described as follows: fluorescence polarisation.
The target of the next assay is T3, CPSF6 D23-4Glu peptide (human, UniProt Q16630 509-528, K510E | R512E | R522E | R524E, FITC-Ahx label).
T3 peptide: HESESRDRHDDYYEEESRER
The assay can be described thus: fluorescence polarisation.

Non-standard residues stand in square brackets, D forms with d. No end group written: not given here. *: point of attachment. FITC = O=C1OC2(c3ccc(O)cc3Oc3cc(O)ccc32)c2ccc(NC(=S)*)cc21; pS = N[C@@H](COP(=O)(O)O)C(=O)O; Ahx = NCCCCCC(=O)O

Sequence of ER/S peptide (D3 peptide with Glu for Tyr at position 1) (human) (Q16630 whole entry, looked up, tested part not stated): as the sequence (Q16630 whole entry) above

Regarding “CPSF6 D2-D3 region 20-mer (D23) (from UniProt Q16630) D2-D3P peptide”, the fold change result with TNPO3 (sites S525) was “stronger”.
Turning to “CPSF6 D2-D3 region 20-mer (D23) (from UniProt Q16630) D2P-D3P peptide”, in the assay with TNPO3 (sites S511,S513,S525), the fold change result was “stronger”.
Take “CPSF6 D2-D3 region 20-mer (D23) (from UniProt Q16630) D2P-D3 peptide”: in the assay with TNPO3 (sites S511,S513), the fold change result is “stronger”.
Broadly, the Kd is the constant that tells how readily two partners part at equilibrium. Molecule B1 showed a Kd in the assay with transportin 3 (TNPO3) of 17.1 µM.
Molecule B2 returned a percent of input TNPO3 recovered in assay [1] of 30%. Moreover, the Kd in assay [2] is greater than 1000 µM; in assay [3], greater than 1000 µM; in assay [4] it was 141 µM; in [5], 1.3 µM; in [6] it was greater than 1000 µM. In addition, the “fold increase of affinity against the D23 peptide” value in the assay with CPSF6 D2P-D3 peptide was roughly 3.3 fold. Further, the “fold increase of affinity against the ERERERER backbone” value in [7] is roughly 10 fold; in assay [8], roughly 5 fold. The “fold reduction of affinity against the D23 peptide” value with CPSF6 D23-4Glu peptide was roughly 25 fold.
